Source: PMC12636033, “Chemical Engineering of Transcription Factors Uncovered Cell-Permeable μMax Modulators”

B1: dBr_Jan07_16923 (dsDNA)
DNA 1: TGGGTCATGCTCGAACAGCGTCACTAGGTAGCACGTGTCTGTGTTCCGTTGTCCGTGCTG
DNA 2: CAGCACGGACAACGGAACACAGACACGTGCTACCTAGTGACGCTGTTCGAGCATGACCCA
B2: dBr_Jan07_32059 (dsDNA)
DNA 1: CCGGTCACTGCCGGTGATGCCCTGCTTTATCACGTGGTCTGTGTTCCGTTGTCCGTGCTG
DNA 2: CAGCACGGACAACGGAACACAGACCACGTGATAAAGCAGGGCATCACCGGCAGTGACCGG
B3: dBr_Jan07_16171 (dsDNA)
DNA 1: ATCACGTGCATCTACTAGACACCCCATGCGTTAGGCGTCTGTGTTCCGTTGTCCGTGCTG
DNA 2: CAGCACGGACAACGGAACACAGACGCCTAACGCATGGGGTGTCTAGTAGATGCACGTGAT
B4: dBr_Jan07_11943 (dsDNA)
DNA 1: GGGCCGGTAAACGGACTGGTACGATGAAGCGCACGTGTCTGTGTTCCGTTGTCCGTGCTG
DNA 2: CAGCACGGACAACGGAACACAGACACGTGCGCTTCATCGTACCAGTCCGTTTACCGGCCC
B5: dBr_Jan07_39019 (dsDNA)
DNA 1: TCCTTCCCGACGGACAGTGCAATCTGATTATCACGTGTCTGTGTTCCGTTGTCCGTGCTG
DNA 2: CAGCACGGACAACGGAACACAGACACGTGATAATCAGATTGCACTGTCCGTCGGGAAGGA
B6: dBr_Jan07_09790 (dsDNA)
DNA 1: ATTCTAATGATTGCGTATACACGTGTCTTGAATTGGGTCTGTGTTCCGTTGTCCGTGCTG
DNA 2: CAGCACGGACAACGGAACACAGACCCAATTCAAGACACGTGTATACGCAATCATTAGAAT
B7: dBr_Jan07_16225 (dsDNA)
DNA 1: ACATTCCTAGCTATTACTTGGTAGCTCTCAGCACGTGTCTGTGTTCCGTTGTCCGTGCTG
DNA 2: CAGCACGGACAACGGAACACAGACACGTGCTGAGAGCTACCAAGTAATAGCTAGGAATGT
B8: dBr_Jan07_34584 (dsDNA)
DNA 1: ATTGCCGCACCTGATGCATCGCCACGTGTTATAATCGTCTGTGTTCCGTTGTCCGTGCTG
DNA 2: CAGCACGGACAACGGAACACAGACGATTATAACACGTGGCGATGCATCAGGTGCGGCAAT
B9: dBr_Jan07_16409 (dsDNA)
DNA 1: CGTTACTGGTGCACGTGTTCTCCTCTCCACCTTCAGGTCTGTGTTCCGTTGTCCGTGCTG
DNA 2: CAGCACGGACAACGGAACACAGACCTGAAGGTGGAGAGGAGAACACGTGCACCAGTAACG
B10: dBr_Jan07_01937 (dsDNA)
DNA 1: AGCTTTTTATCTCTGTGGGCGGGTAACAACCATGTGGTCTGTGTTCCGTTGTCCGTGCTG
DNA 2: CAGCACGGACAACGGAACACAGACCACATGGTTGTTACCCGCCCACAGAGATAAAAAGCT
B11: dBr_Jan07_03962 (dsDNA)
DNA 1: TGGCCGCCACGTGGCGCTCTGCGGTCACATGTTGGGGTCTGTGTTCCGTTGTCCGTGCTG
DNA 2: CAGCACGGACAACGGAACACAGACCCCAACATGTGACCGCAGAGCGCCACGTGGCGGCCA
B12: dBr_Jan07_20372 (dsDNA)
DNA 1: TCGTTTGTACACGTGGGTTTGCAAGAGTAAGTGTCCGTCTGTGTTCCGTTGTCCGTGCTG
DNA 2: CAGCACGGACAACGGAACACAGACGGACACTTACTCTTGCAAACCCACGTGTACAAACGA
B13: dBr_Jan07_23881 (dsDNA)
DNA 1: CATATTAGACCGGCGTATACGCACGTGGCGTAGATTGTCTGTGTTCCGTTGTCCGTGCTG
DNA 2: CAGCACGGACAACGGAACACAGACAATCTACGCCACGTGCGTATACGCCGGTCTAATATG
B14: dBr_Jan07_27092 (dsDNA)
DNA 1: GTTTAGAGGCTGTTTGCTGTCGCCCTACAACCACGTGTCTGTGTTCCGTTGTCCGTGCTG
DNA 2: CAGCACGGACAACGGAACACAGACACGTGGTTGTAGGGCGACAGCAAACAGCCTCTAAAC
B15: dBr_Jan07_28790 (dsDNA)
DNA 1: CTATTCCGATGCCATAAAACTTTCCACTCCACGTGTGTCTGTGTTCCGTTGTCCGTGCTG
DNA 2: CAGCACGGACAACGGAACACAGACACACGTGGAGTGGAAAGTTTTATGGCATCGGAATAG
B16: dBr_Jan07_39189 (dsDNA)
DNA 1: GGCTTGCATTGTTGGGCCCACGTGTTGATTGTCTAAGTCTGTGTTCCGTTGTCCGTGCTG
DNA 2: CAGCACGGACAACGGAACACAGACTTAGACAATCAACACGTGGGCCCAACAATGCAAGCC
B17: dBr_Jan07_18904 (dsDNA)
DNA 1: CCCGGATAATATTTCGGCTTCAAGAATCACGTGGAAGTCTGTGTTCCGTTGTCCGTGCTG
DNA 2: CAGCACGGACAACGGAACACAGACTTCCACGTGATTCTTGAAGCCGAAATATTATCCGGG
B18: dBr_Jan07_04478 (dsDNA)
DNA 1: AGTTGCGCCACTATGCCAAAACACCATTGAGCACGTGTCTGTGTTCCGTTGTCCGTGCTG
DNA 2: CAGCACGGACAACGGAACACAGACACGTGCTCAATGGTGTTTTGGCATAGTGGCGCAACT
B19: dBr_Jan07_00940 (dsDNA)
DNA 1: GGATATGGCCCTCCCTACGAACACGTGGAGTTAGGCGTCTGTGTTCCGTTGTCCGTGCTG
DNA 2: CAGCACGGACAACGGAACACAGACGCCTAACTCCACGTGTTCGTAGGGAGGGCCATATCC
B20: dBr_Jan07_01481 (dsDNA)
DNA 1: CCGCCAGCATTTCCTGCTTTGCACGTGTAAGATACCGTCTGTGTTCCGTTGTCCGTGCTG
DNA 2: CAGCACGGACAACGGAACACAGACGGTATCTTACACGTGCAAAGCAGGAAATGCTGGCGG
B21: dBr_Jan07_32554 (dsDNA)
DNA 1: CGACGTTGTCTGACGAATAATGCCGAGCGGACACGTGTCTGTGTTCCGTTGTCCGTGCTG
DNA 2: CAGCACGGACAACGGAACACAGACACGTGTCCGCTCGGCATTATTCGTCAGACAACGTCG
B22: dBr_Jan07_03225 (dsDNA)
DNA 1: TTCTATCCCTAATCTCCGCGTGGCTACCCCTTCAAGGTCTGTGTTCCGTTGTCCGTGCTG
DNA 2: CAGCACGGACAACGGAACACAGACCTTGAAGGGGTAGCCACGCGGAGATTAGGGATAGAA
B23: dBr_Jan07_12609 (dsDNA)
DNA 1: TGATAAGGATCTACTTCAAGAGCACGTGTCATCTATGTCTGTGTTCCGTTGTCCGTGCTG
DNA 2: CAGCACGGACAACGGAACACAGACATAGATGACACGTGCTCTTGAAGTAGATCCTTATCA
B24: dBr_Jan07_07176 (dsDNA)
DNA 1: TATGCGTTGGCCATCTTAATTCCACGTGGTGTCCTCGTCTGTGTTCCGTTGTCCGTGCTG
DNA 2: CAGCACGGACAACGGAACACAGACGAGGACACCACGTGGAATTAAGATGGCCAACGCATA
B25: dBr_Jan07_01836 (dsDNA)
DNA 1: GTCGAGAATCCAATACGCCACGTGCATACGTACGTCGTCTGTGTTCCGTTGTCCGTGCTG
DNA 2: CAGCACGGACAACGGAACACAGACGACGTACGTATGCACGTGGCGTATTGGATTCTCGAC
B26: dBr_Jan07_03400 (dsDNA)
DNA 1: ACGTCGGCTATGATTTCACGCTATTCTAAGACACGTGTCTGTGTTCCGTTGTCCGTGCTG
DNA 2: CAGCACGGACAACGGAACACAGACACGTGTCTTAGAATAGCGTGAAATCATAGCCGACGT
B27: dBr_Jan07_19752 (dsDNA)
DNA 1: TAAGCTTCGGTTCTCGTTCGGTACAACACGTGTATGGTCTGTGTTCCGTTGTCCGTGCTG
DNA 2: CAGCACGGACAACGGAACACAGACCATACACGTGTTGTACCGAACGAGAACCGAAGCTTA
B28: dBr_Jan07_25672 (dsDNA)
DNA 1: TCACGCACCCCGCAAGCGCAACCACGTGGTAAGGGTGTCTGTGTTCCGTTGTCCGTGCTG
DNA 2: CAGCACGGACAACGGAACACAGACACCCTTACCACGTGGTTGCGCTTGCGGGGTGCGTGA
B29: dBr_Jan07_25426 (dsDNA)
DNA 1: TCTCTGTGCGGCGGGGTCCATAGCACGCACGTGTTAGTCTGTGTTCCGTTGTCCGTGCTG
DNA 2: CAGCACGGACAACGGAACACAGACTAACACGTGCGTGCTATGGACCCCGCCGCACAGAGA
B30: dBr_Jan07_13408 (dsDNA)
DNA 1: CCGCGCGCAGGCACTTAGGGTACCTGCTGTCCACGTGTCTGTGTTCCGTTGTCCGTGCTG
DNA 2: CAGCACGGACAACGGAACACAGACACGTGGACAGCAGGTACCCTAAGTGCCTGCGCGCGG
B31: dBr_Jan07_07207 (dsDNA)
DNA 1: TCAGCCGCGTGGCACAATGTCCACAGGTAGGGTACAGTCTGTGTTCCGTTGTCCGTGCTG
DNA 2: CAGCACGGACAACGGAACACAGACTGTACCCTACCTGTGGACATTGTGCCACGCGGCTGA
B32: dBr_Jan07_36232 (dsDNA)
DNA 1: CCATGCCAACTAGGCGCACGTGATTGTTCGAGAACTGTCTGTGTTCCGTTGTCCGTGCTG
DNA 2: CAGCACGGACAACGGAACACAGACAGTTCTCGAACAATCACGTGCGCCTAGTTGGCATGG
B33: dBr_Jan07_35732 (dsDNA)
DNA 1: TAGTTGTATCTTGATCGCCGATTCCCCATGCCACGTGTCTGTGTTCCGTTGTCCGTGCTG
DNA 2: CAGCACGGACAACGGAACACAGACACGTGGCATGGGGAATCGGCGATCAAGATACAACTA

Molecular target: WT Max (Homo sapiens, UniProt P61244-2 13-93, M65Nle, norleucine written as M; other non-natural residues written as X)
Sequence (P61244 other isoform, or with tags, fused parts or gaps M65Nle): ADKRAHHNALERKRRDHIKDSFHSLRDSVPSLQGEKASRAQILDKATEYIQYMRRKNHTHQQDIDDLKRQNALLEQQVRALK
Test: PBM; 50-200 nM protein; PBS, 2% milk, BSA, salmon testes DNA, 0.02% Triton X-100
Details: chain copies: 2; label: surface-attached array probe

Row | Binder | binding signal
1 | B1 | 4.47 robust z of log adjusted intensity (ours), mean of two arrays
2 | B2 | 4.08 robust z of log adjusted intensity (ours), mean of two arrays
3 | B3 | 6.35 robust z of log adjusted intensity (ours), mean of two arrays
4 | B4 | 4.72 robust z of log adjusted intensity (ours), mean of two arrays
5 | B5 | 4.91 robust z of log adjusted intensity (ours), mean of two arrays
6 | B6 | 4.37 robust z of log adjusted intensity (ours), mean of two arrays
7 | B7 | 4.26 robust z of log adjusted intensity (ours), mean of two arrays
8 | B8 | 6.19 robust z of log adjusted intensity (ours), mean of two arrays
9 | B9 | 4.95 robust z of log adjusted intensity (ours), mean of two arrays
10 | B10 | 4.33 robust z of log adjusted intensity (ours), mean of two arrays
11 | B11 | 4.57 robust z of log adjusted intensity (ours), mean of two arrays
12 | B12 | 4.3 robust z of log adjusted intensity (ours), mean of two arrays
13 | B13 | 4.35 robust z of log adjusted intensity (ours), mean of two arrays
14 | B14 | 4.94 robust z of log adjusted intensity (ours), mean of two arrays
15 | B15 | 4.91 robust z of log adjusted intensity (ours), mean of two arrays
16 | B16 | 4.2 robust z of log adjusted intensity (ours), mean of two arrays
17 | B17 | 4.33 robust z of log adjusted intensity (ours), mean of two arrays

Row | Binder | binding signal
18 | B18 | 4.55 robust z of log adjusted intensity (ours), mean of two arrays
19 | B19 | 4.33 robust z of log adjusted intensity (ours), mean of two arrays
20 | B20 | 4.74 robust z of log adjusted intensity (ours), mean of two arrays
21 | B21 | 4.1 robust z of log adjusted intensity (ours), mean of two arrays
22 | B22 | 4.25 robust z of log adjusted intensity (ours), mean of two arrays
23 | B23 | 4.35 robust z of log adjusted intensity (ours), mean of two arrays
24 | B24 | 4.6 robust z of log adjusted intensity (ours), mean of two arrays
25 | B25 | 3.94 robust z of log adjusted intensity (ours), mean of two arrays
26 | B26 | 4.73 robust z of log adjusted intensity (ours), mean of two arrays
27 | B27 | 4.26 robust z of log adjusted intensity (ours), mean of two arrays
28 | B28 | 6.01 robust z of log adjusted intensity (ours), mean of two arrays
29 | B29 | 4.48 robust z of log adjusted intensity (ours), mean of two arrays
30 | B30 | 4.13 robust z of log adjusted intensity (ours), mean of two arrays
31 | B31 | 5.41 robust z of log adjusted intensity (ours), mean of two arrays
32 | B32 | 4.03 robust z of log adjusted intensity (ours), mean of two arrays
33 | B33 | 4.37 robust z of log adjusted intensity (ours), mean of two arrays
